The test system of one assay is PCY1. It counts as biochemical, Saponaria vaccaria. The following applies: LC/MS (ion count); 30 °C; pH 8.5.
Assay [1] addresses PCY1:S562A (Saponaria vaccaria) (UniProt R4P353). Nature of the assay: ITC.
The next assay concerns the target T1, PCY1:S562A (Saponaria vaccaria, UniProt R4P353 1-724, S562A).
T1 sequence: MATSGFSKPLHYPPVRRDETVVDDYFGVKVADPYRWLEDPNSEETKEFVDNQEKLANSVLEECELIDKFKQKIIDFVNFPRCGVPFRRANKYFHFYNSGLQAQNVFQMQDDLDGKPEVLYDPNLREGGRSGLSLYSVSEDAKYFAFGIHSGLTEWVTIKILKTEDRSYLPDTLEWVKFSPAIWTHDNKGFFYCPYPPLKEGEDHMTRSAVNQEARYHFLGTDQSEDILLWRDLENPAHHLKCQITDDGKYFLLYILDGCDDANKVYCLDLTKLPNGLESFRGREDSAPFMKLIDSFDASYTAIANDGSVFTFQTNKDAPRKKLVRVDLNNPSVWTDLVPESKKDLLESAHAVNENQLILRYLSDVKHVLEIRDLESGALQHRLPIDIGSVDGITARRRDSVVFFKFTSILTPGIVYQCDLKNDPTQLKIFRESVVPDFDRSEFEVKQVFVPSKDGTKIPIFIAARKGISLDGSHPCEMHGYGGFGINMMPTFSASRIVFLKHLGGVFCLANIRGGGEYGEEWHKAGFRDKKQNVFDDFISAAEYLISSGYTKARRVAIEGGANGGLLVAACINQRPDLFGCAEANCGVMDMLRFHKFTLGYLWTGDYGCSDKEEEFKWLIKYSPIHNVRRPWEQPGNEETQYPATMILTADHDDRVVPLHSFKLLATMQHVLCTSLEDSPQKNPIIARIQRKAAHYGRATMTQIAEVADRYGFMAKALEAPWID
Nature of the assay: ITC.

For FSASYSSKP FQA, in the assay on PCY1, the kcat/Km was found to be 1200 s^–1 M^–1. In turn, presegetalin A1 (peptide) had a Kd in assay [1] of 173 nM. Still for that read-out and setting: as for presegetalin B1 (peptide), the figure is 238 nM; as for presegetalin D1 (peptide), 250 nM; as for presegetalin F1 (peptide), 136 nM. In turn, DNASAPV yielded a Kd in the assay with PCY1:S562A of 9580 ± 580 nM.

What is called Kd is the constant that tells how readily two partners part at equilibrium. High values mean a looser complex, low ones a tighter complex.
